# Data: PMC13364712
# Biological target: actin filaments (actin from Gallus gallus skeletal muscle) (Gallus gallus (chicken)) (UniProt P68139)
# Experiment: co-sedimentation; 4 µM EGFP–SFM peptide with 0–200 µM actin filaments in F buffer, 1 h at room temperature, 100,000g for 30 min; pellet read by anti-EGFP western blot; one-site specific binding fit; apparent
row,Kd [µM],Substance
1,6,"EGFP-tagged USP54 SFM peptide, wild type"
2,2,EGFP–Lifeact (peptide)
